Legend:
Muromonab = assay: SPR
[1] = target: nanobody‐based trispecific T cell engager (Nb‐TriTE) (human, UniProt P01857 = IgG part); assay: SPR

Kd (Muromonab): 7.68 nM | Kd [1]: 0.337 nM
B1: rhCD3 (protein)
chain: DGNEEMGGITQTPYKVSISGTTVILTCPQYPGSEILWQHNDKNIGGDEDDKNIGSDEDHLSLKEFSELEQSGYYVCYPRGSKPEDANFYLYLRARVCENCMEMD
